From patent publication US12410262B2, “Peptide conjugates of cytotoxins as therapeutics” (Cybrexa 2, Inc., priority 2019, dated 2025)
pIC50: −log10 of the molar value. Read-outs that look alike come from different tables or passages of the source.

Tests used:
HCT116 = test: cells; format: cell-based, human
Experimental: Cells were plated in 96 well black walled-clear bottom plates (Griener), DLD-1 WT cells at 2500 cells per well, FaDu, and HeLa cells at 5000 cells per well, and HCT116 at 3000 cells per well, in growth media containing 10% FBS. Cells were allowed to adhere at room temperature for 60 minutes before returning to a 37 C, 5% CO2 incubator. After 24 hours, media was removed and replaced with fresh growth media containing various drug concentrations. Each drug concentration was added in triplicate. Non-drug treated controls contained growth media only. Cells were returned to the incubator. Ninety-six hours after addition of drug, cells were fixed with 4% paraformaldehyde for 20 minutes and stained with Hoechst at 1 ug/mL. The plates were imaged on a Cytation 5 auto imager (BioTek) and cells were counted using CellProfiler (http://cellprofiler.org). The percent cell growth delay was calculated and data plotted using GraphPad Prism

Plasma stability studies = format: in vitro ADME; conditions: rat plasma, 100 μM conjugate, 37° C.
Experimental: A 20 mM stock of conjugate was prepared in 100% DMSO. The stocks were subsequently diluted in 100 mM Tris, pH 7.5 to yield an intermediate dilution of 500 μM and then diluted 1:5 directly into rat plasma to yield a final concentration of 100 μM of conjugate. Samples were mixed by inversion and incubated at 37° C. for up to 24 h. 50 μL samples were aliquoted into siliconized microfuge tubes at time 0, 4, and 24 h and immediately frozen at −80° C.
(§1) Samples were thawed and extracted as follows: 8 μL of 25% phosphoric acid followed by 117 μL of 100% Acetonitrile/0.1% TFA was added to each sample, mixed and centrifuged at 13000×G for 10 minutes. The supernatant was pipetted into 0.2 mL HPLC vials and placed on a Perkin Elmer Flexar HPLC autosampler. The following table summarizes HPLC conditions:
Data was analyzed by calculating the percentage reduction of compound (area of retention time peak of incubated conjugate/area of retention time peak of conjugate at time 0)×100.

[1] = Glutathione cleavage study; format: in vitro ADME; conditions: for remaining at 4 h, 100 µM / remaining at 24 h, 100 µM: Tris buffer with 10 mM glutathione, Glutathione Challenge (10 mM), 100 μM conjugate, Tris pH 7.5, 37° C.
Experimental: A 20 mM stock of conjugate was prepared in 100% DMSO. The stocks were subsequently diluted in 100 mM Tris, pH 7.5, to yield an intermediate dilution of 500 μM followed by an additional dilution of 1:5 in 100 mM Tris, pH 7.5 to give a final concentration of 100 μM of conjugate. 100 mM glutathione was prepared immediately prior to use in H2O and diluted 1:10 in challenge samples for a final glutathione challenge concentration of 10 mM. Samples were mixed by inversion and incubated at 37° C. for up to 24 hrs. […]
as §1, with “100% acetonitrile/0.1%” for “100% Acetonitrile/0.1%”, “TFA were” for “TFA was”
Data was analyzed by calculating the percentage reduction of compound (area of retention time peak of […] conjugate/area of retention time peak of conjugate at time 0)×100.

| Compound | pIC50 (HCT116; 96 h) | remaining at 4 h, 100 µM (Plasma stability studies) | remaining at 24 h, 100 µM (Plasma stability studies) | remaining at 4 h, 100 µM [1] | remaining at 24 h, 100 µM [1] | pIC50 (HCT116; HCT-116 cells, 96 h after addition of drug, second table (Compounds 11-29), read-out: HCT-116 (IC50)) | degradation on glutathione exposure (FIG. 10) ([1]; 10 mM glutathione over 16 h) |
| --- | --- | --- | --- | --- | --- | --- | --- |
| CC[C@@]1(O)C(=O)OCc2c1cc1n(c2=O)Cc2c-1nc1cc(F)c(C)c3c1c2[C@@H](NC(=O)O[C@H]1CC[C@H](SSC[C@H](NC(=O)[C@H](Cc2c[nH]c4ccccc24)NC(=O)[C@H](CC(C)C)NC(=O)[C@H](CC(C)C)NC(=O)[C@H](CC(=O)O)NC(=O)[C@H](CC(C)C)NC(=O)[C@H](CC(C)C)NC(=O)[C@H](CC(C)C)NC(=O)[C@@H](NC(=O)[C@H](CC(=O)O)NC(=O)[C@@H](NC(=O)[C@@H]2CCCN2C(=O)[C@H](Cc2ccccc2)NC(=O)[C@H](CC(C)C)NC(=O)[C@H](CC(C)C)NC(=O)[C@H](CC(=O)O)NC(=O)[C@H](CC(C)C)NC(=O)[C@H](Cc2ccc(O)cc2)NC(=O)[C@H](C)NC(=O)[C@H](CCCNC(=N)N)NC(=O)[C@H](Cc2c[nH]c4ccccc24)NC(=O)[C@@H]2CCCN2C(=O)[C@H](CC(N)=O)NC(=O)[C@H](CCC(N)=O)NC(=O)[C@H](CC(=O)O)NC(=O)[C@H](CC(=O)O)NC(=O)[C@H](C)N)[C@@H](C)O)[C@@H](C)O)C(=O)NCC(=O)O)CC1)CC3 [Compound 26] | 7.06 | 105% | 112% | 75.8% | 32.1% |  |  |
| CC[C@@]1(O)C(=O)OCc2c1cc1n(c2=O)Cc2c-1nc1cc(F)c(C)c3c1c2[C@@H](NC(=O)OC[C@H](SSC[C@H](NC(=O)[C@H](Cc1c[nH]c2ccccc12)NC(=O)[C@H](CC(C)C)NC(=O)[C@H](CC(C)C)NC(=O)[C@H](CC(=O)O)NC(=O)[C@H](CC(C)C)NC(=O)[C@H](CC(C)C)NC(=O)[C@H](CC(C)C)NC(=O)[C@@H](NC(=O)[C@H](CC(=O)O)NC(=O)[C@@H](NC(=O)[C@@H]1CCCN1C(=O)[C@H](Cc1ccccc1)NC(=O)[C@H](CC(C)C)NC(=O)[C@H](CC(C)C)NC(=O)[C@H](CC(=O)O)NC(=O)[C@H](CC(C)C)NC(=O)[C@H](Cc1ccc(O)cc1)NC(=O)[C@H](C)NC(=O)[C@H](CCCNC(=N)N)NC(=O)[C@H](Cc1c[nH]c2ccccc12)NC(=O)[C@@H]1CCCN1C(=O)[C@H](CC(N)=O)NC(=O)[C@H](CCC(N)=O)NC(=O)[C@H](CC(=O)O)NC(=O)[C@H](CC(=O)O)NC(=O)[C@H](C)N)[C@@H](C)O)[C@@H](C)O)C(=O)NCC(=O)O)C(C)C)CC3 [Compound 28] | 8.96 | 106% | 106% | 40.5% | 0% |  |  |
| CC[C@@]1(O)C(=O)OCc2c1cc1n(c2=O)Cc2c-1nc1cc(F)c(C)c3c1c2[C@@H](NC(=O)O[C@H](C)[C@@H](C)SSC[C@H](NC(=O)[C@H](Cc1c[nH]c2ccccc12)NC(=O)[C@H](CC(C)C)NC(=O)[C@H](CC(C)C)NC(=O)[C@H](CC(=O)O)NC(=O)[C@H](CC(C)C)NC(=O)[C@H](CC(C)C)NC(=O)[C@H](CC(C)C)NC(=O)[C@@H](NC(=O)[C@H](CC(=O)O)NC(=O)[C@@H](NC(=O)[C@@H]1CCCN1C(=O)[C@H](Cc1ccccc1)NC(=O)[C@H](CC(C)C)NC(=O)[C@H](CC(C)C)NC(=O)[C@H](CC(=O)O)NC(=O)[C@H](CC(C)C)NC(=O)[C@H](Cc1ccc(O)cc1)NC(=O)[C@H](C)NC(=O)[C@H](CCCNC(=N)N)NC(=O)[C@H](Cc1c[nH]c2ccccc12)NC(=O)[C@@H]1CCCN1C(=O)[C@H](CC(N)=O)NC(=O)[C@H](CCC(N)=O)NC(=O)[C@H](CC(=O)O)NC(=O)[C@H](CC(=O)O)NC(=O)[C@H](C)N)[C@@H](C)O)[C@@H](C)O)C(=O)NCC(=O)O)CC3 [Compound 12] |  |  |  |  |  | 8.59 |  |
| CC[C@@]1(O)C(=O)OCc2c1cc1n(c2=O)Cc2c-1nc1cc(F)c(C)c3c1c2[C@@H](NC(=O)O[C@@H]1CCCCC[C@H]1SSC[C@H](NC(=O)[C@H](Cc1c[nH]c2ccccc12)NC(=O)[C@H](CC(C)C)NC(=O)[C@H](CC(C)C)NC(=O)[C@H](CC(=O)O)NC(=O)[C@H](CC(C)C)NC(=O)[C@H](CC(C)C)NC(=O)[C@H](CC(C)C)NC(=O)[C@@H](NC(=O)[C@H](CC(=O)O)NC(=O)[C@@H](NC(=O)[C@@H]1CCCN1C(=O)[C@H](Cc1ccccc1)NC(=O)[C@H](CC(C)C)NC(=O)[C@H](CC(C)C)NC(=O)[C@H](CC(=O)O)NC(=O)[C@H](CC(C)C)NC(=O)[C@H](Cc1ccc(O)cc1)NC(=O)[C@H](C)NC(=O)[C@H](CCCNC(=N)N)NC(=O)[C@H](Cc1c[nH]c2ccccc12)NC(=O)[C@@H]1CCCN1C(=O)[C@H](CC(N)=O)NC(=O)[C@H](CCC(N)=O)NC(=O)[C@H](CC(=O)O)NC(=O)[C@H](CC(=O)O)NC(=O)[C@H](C)N)[C@@H](C)O)[C@@H](C)O)C(=O)NCC(=O)O)CC3 [Compound 22] | 8.23 | 106% | 105% | 65.8% | 12.3% |  |  |
| CC[C@@]1(O)C(=O)OCc2c1cc1n(c2=O)Cc2c-1nc1cc(F)c(C)c3c1c2[C@@H](NC(=O)CCSSC[C@H](NC(=O)[C@H](Cc1c[nH]c2ccccc12)NC(=O)[C@H](CC(C)C)NC(=O)[C@H](CC(C)C)NC(=O)[C@H](CC(=O)O)NC(=O)[C@H](CC(C)C)NC(=O)[C@H](CC(C)C)NC(=O)[C@H](CC(C)C)NC(=O)[C@@H](NC(=O)[C@H](CC(=O)O)NC(=O)[C@@H](NC(=O)[C@@H]1CCCN1C(=O)[C@H](Cc1ccccc1)NC(=O)[C@H](CC(C)C)NC(=O)[C@H](CC(C)C)NC(=O)[C@H](CC(=O)O)NC(=O)[C@H](CC(C)C)NC(=O)[C@H](Cc1ccc(O)cc1)NC(=O)[C@H](C)NC(=O)[C@H](CCCNC(=N)N)NC(=O)[C@H](Cc1c[nH]c2ccccc12)NC(=O)[C@@H]1CCCN1C(=O)[C@H](CC(N)=O)NC(=O)[C@H](CCC(N)=O)NC(=O)[C@H](CC(=O)O)NC(=O)[C@H](CC(=O)O)NC(=O)[C@H](C)N)[C@@H](C)O)[C@@H](C)O)C(=O)NCC(=O)O)CC3 [Compound 29] | 7.16 | 116% | 110% | 3.1% | 5.9% |  | released much faster than Compound 11 |
| CC[C@@]1(O)C(=O)OCc2c1cc1n(c2=O)Cc2c-1nc1cc(F)c(C)c3c1c2[C@@H](NC(=O)O[C@H]1Cc2ccccc2C[C@@H]1SSC[C@H](NC(=O)[C@H](Cc1c[nH]c2ccccc12)NC(=O)[C@H](CC(C)C)NC(=O)[C@H](CC(C)C)NC(=O)[C@H](CC(=O)O)NC(=O)[C@H](CC(C)C)NC(=O)[C@H](CC(C)C)NC(=O)[C@H](CC(C)C)NC(=O)[C@@H](NC(=O)[C@H](CC(=O)O)NC(=O)[C@@H](NC(=O)[C@@H]1CCCN1C(=O)[C@H](Cc1ccccc1)NC(=O)[C@H](CC(C)C)NC(=O)[C@H](CC(C)C)NC(=O)[C@H](CC(=O)O)NC(=O)[C@H](CC(C)C)NC(=O)[C@H](Cc1ccc(O)cc1)NC(=O)[C@H](C)NC(=O)[C@H](CCCNC(=N)N)NC(=O)[C@H](Cc1c[nH]c2ccccc12)NC(=O)[C@@H]1CCCN1C(=O)[C@H](CC(N)=O)NC(=O)[C@H](CCC(N)=O)NC(=O)[C@H](CC(=O)O)NC(=O)[C@H](CC(=O)O)NC(=O)[C@H](C)N)[C@@H](C)O)[C@@H](C)O)C(=O)NCC(=O)O)CC3 [Compound 19] | 8.74 |  |  |  |  |  |  |
| CC[C@@]1(O)C(=O)OCc2c1cc1n(c2=O)Cc2c-1nc1cc(F)c(C)c3c1c2[C@@H](NC(=O)O[C@@H]1CCCC[C@H]1SSC[C@H](NC(=O)[C@H](Cc1c[nH]c2ccccc12)NC(=O)[C@H](CC(C)C)NC(=O)[C@H](CC(C)C)NC(=O)[C@H](CC(=O)O)NC(=O)[C@H](CC(C)C)NC(=O)[C@H](CC(C)C)NC(=O)[C@H](CC(C)C)NC(=O)[C@@H](NC(=O)[C@H](CC(=O)O)NC(=O)[C@@H](NC(=O)[C@@H]1CCCN1C(=O)[C@H](Cc1ccccc1)NC(=O)[C@H](CC(C)C)NC(=O)[C@H](CC(C)C)NC(=O)[C@H](CC(=O)O)NC(=O)[C@H](CC(C)C)NC(=O)[C@H](Cc1ccc(O)cc1)NC(=O)[C@H](C)NC(=O)[C@H](CCCNC(=N)N)NC(=O)[C@H](Cc1c[nH]c2ccccc12)NC(=O)[C@@H]1CCCN1C(=O)[C@H](CC(N)=O)NC(=O)[C@H](CCC(N)=O)NC(=O)[C@H](CC(=O)O)NC(=O)[C@H](CC(=O)O)NC(=O)[C@H](C)N)[C@@H](C)O)[C@@H](C)O)C(=O)NCC(=O)O)CC3 [Compound 13] | 7.68 |  |  |  |  |  |  |
